In US20250027068:

Target: pooled human IgG

Protein	Enzyme Activity Endpoint Assay (purified): Fab'2 [ng/µL]	Enzyme Activity Endpoint Assay (purified): Fc [ng/µL]	Enzyme Activity Endpoint Assay (purified): IgG [ng/µL]	Enzyme Activity Endpoint Assay (purified): scIgG [ng/µL]	Enzyme Activity Endpoint Assay: Fab′2 [ng/µL]	Enzyme Activity Endpoint Assay: Fc [ng/µL]	Enzyme Activity Endpoint Assay: IgG [ng/µL]	Enzyme Activity Endpoint Assay: scIgG [ng/µL]
PRT-148 (protein) MANQEIRYSEVTPYHVTSVWTKGVTPPANFTQGEDVFHAPYVANQGWYDITKTFNGKDDLLCGAATAGNMLHWWFDQNKDQIKRYLEEHPEKQKINFNGEQMFDVKEAIDTKNHQLDSKLFEYFKEKAFPYLSTKHLGVFPDHVIDMFINGYRLSLTNHGPTPVKRQSKDPRGGIFDAVFTRGDQSKLLTSRHDFKEKNLKEISDLIKKELTEGKALGLSHTYANVRINHVINLWGADFDSNGNLKAIYVTDSDSNASIGMKKYFVGVNSAGKVAISAKEIKEDNIGAQVLGLFTLSTGQDSWNKTN	764	203	0	0	–	–	–	–
PRT-149 (protein) MANQEIRYSEVTPYHVTSVWTKGVTPPANFTQGEDVFHAPYVANQGWYDITKTFNGKDDLLCGAATAGNMLHWWFDQNKDQIKRYLEEHPEKQKINFNGEQMFDVKEAIDTKNHQLDSKLFEYFKEKAFPYLSTKHLGVFPDHVIDMFINGYRLSLTNHGPTPVKRQTKDPRGGIFDAVFGRGDQTKLLTSRHDFKEKNLKEISDLIKKELTEGKALGLSHTYANVRINHVINLWGADFDSNGNLKAIYVTDSDSNASIGMKKYFVGVNSAGKVAISAKEIKEDNIGAQVLGLFTLSTGQKSWNKTN	831	0	0	0	–	–	–	–
PRT-150 (protein) MANQEIRYSEVTPYHVTSVWTKGVTPPANFTQGEDVFHAPYVANQGWYDITKTFNGKDDLLCGAATAGNMLHWWFDQNKDQIKRYLEEHPEKQKINFNGEQMFDVKEAIDTKNHQLDSKLFEYFKEKAFPYLSTKHLGVFPDHVIDMFINGYRLSLTNHGPTPVKRQEKDPRGGIFDAVFGRGDQTKLLTSRHDFKEKNLKEISDLIKKELTEGKALGLSHTYANVRINHVINLWGADFDSNGNLKAIYVTDSDSNASIGMKKYFVGVNSAGKVAISAKEIKEDNIGAQVLGLFTLSTGQKSWNKTN	612	161	0	0	–	–	–	–
PRT-13 (protein) MANQEIRYSEETPYHVTSVWTKGVTPPANFTQGEDVFHAPYKANQGWYDITKTFNGKDDLLCGAATAGNMLHWWFDQNKDQIEAYLKEHPEKQKINFNGEQMFDVKEAIDTKDDQTNSKLFEYFKEKAFPYLSTKHLGVFPDHVLDMFINGYRLSLTNHGPTPVKEGSKDPRGGIFDAVFTRGDQSKLLTSRHDFKEKTLKEISDLIKQELTEGKALALSHTYANVRINHVINLWGADFDSNGNLEAIYVTDSDSNASIGMKKYFVGVNSAGKVAISAKEIEDDNIGAQVLGLFTLSTGQDIWNQTN	–	–	–	–	2	74	12	66
PRT-143 (protein) MANQEIRYSEVTPYHITSVWTKGVTPPANFTQGEDVFHAPYVANQGWYDITKTFNGKDDLLCGAATAGNMLHWWFDQNKDQIKRYLEEHPEKQKINFNGEQMFDVKEAIDTKNHQLDSKLFEYFKEKAFPYLSTKHLGVFPDHVIDMFINGYRLSLTNHGPTPVKEGSKDPRGGIFDAVFTRGDQSKLLTSRHDFKEKTLNEISQLIKQELTEGKALGLSHTYANVRINHVINLWGADFDAEGNLEAIYVTDSDSNASIGMKKYFVGVNSAGKVAISAKEIKEDNIGAQVLGLFTLSTGQDSWNQTN	576	170	0	0	–	–	–	–
PRT-146 (protein) MANQEIRYSEVTPYHIKTVWTKGVTPPANFTQGEDVFHAPYVANQGWYDITKTFNGKDDLLCGAATAGNMLHWWFDQNKDQIKRYLEEHPEKQKINFNGEQMFDVKEAIDTKNHQLDSKLFEYFKEKAFPYLSTKHLGVFPDHVIDMFINGYRLSLTNHGPTPVKEGSKDPRGGIFDAVFTRGDQSKLLTSRHDFKEKTLNDISQLIKQELQSGKALGLSHTYANVRINHVINLWGADFDAEGNLEAIYVTDSDSNASIGMKKYFVGKNSAGKVAISAKEIKEDNIGAQVLGLFTLSTGQDSWNQTN	672	215	0	0	–	–	–	–
PRT-144 (protein) MANQEIRYSEVTPYHITSVWTKGVTPPANFTQGEDVFHAPYVANQGWYDITKTFNGKDDLLCGAATAGNMLHWWFDQNKDQIKRYLEEHPEKQKINFNGEQMFDVKEAIDTKNHQLDSKLFEYFKEKAFPYLSTKHLGVFPDHVIDMFINGYRLSLTNHGPTPVKEGSKDPRGGIFDAVFTRGDQSKLLTSRHDFKEKTLNDISQLIKQELQSGKALGLSHTYANVRINHVINLWGADFDAEGNLEAIYVTDSDSNASIGMKKYFVGKNSAGKVAISAKEIKEDNIGAQVLGLFTLSTGQDSWNQTN	562	151	0	26	–	–	–	–
PRT-147 (protein) MANQEIRYSEVTPYHIKIVWTKGVTPPANFTQGEDVFHAPYVANQGWYDITKTFNGKDDLLCGAATAGNMLHWWFDQNKDQIKRYLEEHPEKQKINFNGEQMFDVKEAIDTKNHQLDSKLFEYFKEKAFPYLSTKHLGVFPDHVIDMFINGYRLSLTNHGPTPVKEGSKDPRGGIFDAVFTRGDQSKLLTSRHDFKEKTLNDISQLIKQELQSGKALGLSHTYANVRINHVINLWGADFDAEGNLEAIYVTDSDSNASIGMKKYFVGKNSAGKVAISAKEIKEDNIGAQVLGLFTLSTGQDSWNQTN	723	206	0	0	–	–	–	–
PRT-145 (protein) MANQEIRYSEVTPYHITSVWTKGVTPPANFTQGEDVFHAPYVANQGWYDITKTFNGKDDLLCGAATAGNMLHWWFDQNKDQIKRYLEEHPEKQKINFNGEQMFDVKEAIDTKNHQLDSKLFEYFKEKAFPYLSTKHLGVFPDHVIDMFINGYRLSLTNHGPTPVKEGSKDPRGGIFDAVFTRGDQSKLLTSRHDFKEKTLNTISQLIKQELQSGKALGLSHTYANVRINHVINLWGADFDAEGNLEAIYVTDSDSNASIGMKKYFVGKNSAGKVAISAKEIKEDNIGAQVLGLFTLSTGQDSWNQTN	735	207	0	0	–	–	–	–
PRT-142 (protein) MRNATEAYAKEVPHQITSVWTKGVTPLTPEQFRYNNEDVFHAPYLAHQGWYDITKAFDGKDNLLCGAATAGNMLHWWFDQNKTEIEAYLSKHPEKQKIIFNNQELFDLKAAIDTKDSQTNSQLFNYFRDKAFPNLSARQLGVMPDLVLDMFINGYYLNVFKTQSTDVNRPYQDKDKRGGIFDAVFTRGDQTTLLTARHDLKNKGLNDISTIIKQELTEGRALALSHTYANVSISHVINLWGADFNAEGNLEAIYVTDSDANASIGMKKYFVGINAHGHVAISAKKIEGENIGAQVLGLFTLSSGKDIWQKLS	589	135	0	0	–	–	–	–
